Measured values from patent US20250207119A1.

How the values were obtained:
[1] = target: Human ADAM10 from R & D Systems (human) (UniProt O14672); test: cell-based or functional assay
[2] = target: ADAM17 from R & D Systems (UniProt P78536); test: cell-based or functional assay
ADAM17 from R & D Systems, sequence (P78536 215-671 limits assumed): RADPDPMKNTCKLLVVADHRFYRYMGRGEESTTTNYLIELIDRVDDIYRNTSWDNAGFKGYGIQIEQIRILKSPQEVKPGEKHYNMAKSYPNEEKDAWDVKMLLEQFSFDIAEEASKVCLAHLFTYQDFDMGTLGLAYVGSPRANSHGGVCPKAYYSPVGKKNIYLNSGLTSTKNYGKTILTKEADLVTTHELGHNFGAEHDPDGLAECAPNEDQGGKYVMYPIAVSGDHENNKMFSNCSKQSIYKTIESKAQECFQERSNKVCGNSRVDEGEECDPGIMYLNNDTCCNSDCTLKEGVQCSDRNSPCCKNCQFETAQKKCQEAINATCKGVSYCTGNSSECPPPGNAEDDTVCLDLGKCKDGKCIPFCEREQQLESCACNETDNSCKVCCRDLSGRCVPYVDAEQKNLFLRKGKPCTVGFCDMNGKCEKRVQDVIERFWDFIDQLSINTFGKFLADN

Human ADAM10 from R & D Systems (human), sequence (O14672 214-672 limits assumed): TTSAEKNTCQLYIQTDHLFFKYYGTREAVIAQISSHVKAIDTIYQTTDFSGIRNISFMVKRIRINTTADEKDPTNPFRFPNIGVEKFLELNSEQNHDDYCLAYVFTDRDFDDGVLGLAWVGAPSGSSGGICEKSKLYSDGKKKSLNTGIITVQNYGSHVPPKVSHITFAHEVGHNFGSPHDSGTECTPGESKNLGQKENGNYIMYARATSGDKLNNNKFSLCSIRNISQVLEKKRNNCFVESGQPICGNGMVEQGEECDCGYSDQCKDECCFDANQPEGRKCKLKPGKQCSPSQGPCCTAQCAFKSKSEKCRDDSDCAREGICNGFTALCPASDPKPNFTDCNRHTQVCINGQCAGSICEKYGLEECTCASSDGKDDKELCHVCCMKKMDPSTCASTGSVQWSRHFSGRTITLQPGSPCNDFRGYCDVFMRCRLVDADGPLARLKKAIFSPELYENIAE

B1: Cys151-pegylated SEQ ID NO: 1 (peptide, not shown: small tags and cut ends)
chain: NPLNKYIRHYEGLSYNVDSLHQKHQRAKRAVSHEDQFLRLDFHAHGRHFNLRMKRDTSLFSDEFKVETSNKVLDYDTSHIYTGHIYGEEGSFSHGSVIDGRFEGFIQTRGGTFYVEPAERYIKDRTLPFHSVIYHEDDINYPHKYGPQGGCADHSVFERMRKYQMTGVEEVTQIPQEEHAANGPELLRK
modifications: 10 kDa maleimide PEG on Cys151
**Q.** Which results are given for B1?
**A.** IC50 (nM), inhibition of ADAM10 cleavage of the fluorescent substrate PEPDAB064 [1]: 49 nM; percent inhibition of ADAM17 activity [2]: 33 % at 6.7 µM
